What is called EC50 is the concentration that produces a half-maximal response. A lower EC50 goes with higher potency in that assay. As a reminder, the Kd is the free concentration of one partner at which half of the binding sites on the other are occupied at equilibrium, for simple one-to-one binding. Read a high Kd as a looser complex.

The text below walks through data of patent US20220162322A1 (CAPELLA BIOSCIENCE, published 2022).

The target of test [1] is T1, human BDCA-2-Fc (hIgG1-Fc-hBDCA-2) (human).
T1 construct: also called huBDCA2-Fc
T1 sequence (chain, as listed by the source limits assumed): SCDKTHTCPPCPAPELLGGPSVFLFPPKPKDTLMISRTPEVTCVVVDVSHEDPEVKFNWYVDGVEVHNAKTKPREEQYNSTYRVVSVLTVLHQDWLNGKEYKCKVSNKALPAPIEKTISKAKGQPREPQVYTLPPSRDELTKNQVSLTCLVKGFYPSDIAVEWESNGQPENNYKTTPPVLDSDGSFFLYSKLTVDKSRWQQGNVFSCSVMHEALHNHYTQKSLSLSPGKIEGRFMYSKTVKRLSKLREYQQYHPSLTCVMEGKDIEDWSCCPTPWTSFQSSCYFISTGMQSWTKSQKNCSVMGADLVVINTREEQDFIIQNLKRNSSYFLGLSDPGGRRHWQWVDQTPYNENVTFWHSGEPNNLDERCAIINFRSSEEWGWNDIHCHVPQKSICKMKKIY
The test is described as follows: ELISA on plate-coated human BDCA2-Fc. The procedure:
100 ul per well of 0.5 μg/ml of human BDCA2-Fc in PBS pH 7.4 was incubated overnight at 4 C. The wells were then washed 3 times with PBST (PBS+0.05% Tween 20) and then blocked with 250 ul 4% Skimmed Milk (Marvel, cat. no. 3023033 Lot no. 7169) in PBS for 120 min at RT. The wells were washed and then incubated with 100 ul per well of humanized mAbs at 3 fold dilutions (from 1 μg/ml to 0.001 μg/ml) in 1% Skimmed Milk PBS buffer at pH 7.4. After 60 min at RT the wells were washed 3 times in PBST and 100 ul of mouse anti-human IgG (anti-CH1-HRP; 1:1000, BD Pharmigen cat. no. 555788) or donkey anti-mouse IgG (anti-mouse IgG-HRP) at 1:5000 dilution (Jackson ImmunoResearch, Cat. no. 715-035-150) in 1% Skimmed Milk PBS was added. Development was with TMB (ThermoFisher, cat. no. 00-4201-56), 100 ul/well and the reaction stopped with 100 μl/well H2SO4 (cat. nr. J/8430/15, lot nr.) and the absorbance read at 450 nm. The EC50 was calculated using Graphpad Prism software. A negative (1% Skimmed Milk/PBS) and positive control (anti-BDCA-2, AC144, Miltenyi Biotec, cat. no. 130-090-690) were utilised in the assay.
In general terms: An ELISA detects its analyte on a solid surface through an enzyme-linked reagent.

Test [2] deals with T1, human BDCA-2-Fc (hIgG1-Fc-hBDCA-2). The test is described as follows: SPR (BIAcore), comparison of KD. (In general: SPR reads the build-up and loss of mass on a sensor chip optically.)
Test [3] has the same target. Briefly: SPR (BIAcore T200), huBDCA2-Fc immobilised on CM5 chip, mAb injected. The procedure:
A BIAcore T200 was used with BIAcore run buffer (HBS-EP) at pH7.4. 692RU of huBDCA2-Fc was immobilized to a CM5 chip (CFJB156) utilising 5 μg/ml of huBDCA2-Fc with the BIAcore EDC/NHS kit according to the manufacturer's instructions. Two-fold dilutions of the humanized mAbs were injected starting at 200 nM down to 3.1 nM with a contact time of 60 s at a flow of 30 or 60 ul/min at 25° C. followed by an off-rate wash for 5 minutes with BIAcore buffer. […] The BIAcore T200 software was used to calculate Ka (1/Ms), Kd (1/s) and the KD (nM).

B1: 3E05_var1 (antibody, human IgG1, V domains shown)
VH: EVQLVESGGGLVKPGGSLRLSCAASGFTFSSYTMSWVRQAPGKGLEWVAYISSGGGNTYYPDSVKGRFTISRDNAKNSLYLQMNSLRAEDTAVYYCARHDYYDGGLYYAMDYWGQGTLVTVSS
VL: DIVMTQSPDSLAVSLGERATINCKASQSVDYDGDSSMNWYQQKPGQPPKLLISAASTLESGVPSRFSGSGSGTDFTLTISSLQAEDVAVYYCQQTNEDPPTFGGGTKVEIK
notes: also called 3E05 VL1VH1 (var_1)
In the case of B1, in test [1], the EC50 was 0.51 nM. Also, the “fold higher affinity than parental wild type 3E05 and AC144” value in test [2] was above 100 fold. The same molecule displayed a Kd in test [3] below 0.01 nM.

B2: 3E05_var5 (antibody, human IgG1, V domains shown)
VH: EVQLVESGGGLVKPGGSLRLSCAASGFTFSSYTMSWVRQAPGKGLEWVAYISSGGGNTYYPDSVKGRFTISRDNAKNSLYLQMNSLRAEDTAVYYCARHDYYDGGLYYAMDYWGQGTLVTVSS
VL: DIVMTQSPDSLAVSLGERATINCKSSQSVDYDGDSSMNWYQQKPGQPPKLLISAASTLESGVPSRFSGSGSGTDFTLTISSLQAEDVATYYCQQTNEDPPTFGGGTKVEIK
notes: also called 3E05 VL2VH1 (var_5)
As for B2, it took 0.51 nM to reach a half-maximal effect in test [1] (EC50). Moreover, the “fold higher affinity than parental wild type 3E05 and AC144” value in test [2] is above 100 fold. Besides, the Kd in test [3] is below 0.01 nM.

B3: 3E05_var3 (antibody, human IgG1, V domains shown)
VH: EVQLVESGGGLVKPGGSLRLSCAASGFTFSSYTMSWVRQAPGKGLEWVAYISSGGGQTYYPDSVKGRFTISRDNAKNSLYLQMNSLRAEDTAVYYCARHDYYDGGLYYAMDYWGQGTLVTVSS
VL: DIVMTQSPDSLAVSLGERATINCKASQSVDYDGDSSMNWYQQKPGQPPKLLISAASTLESGVPSRFSGSGSGTDFTLTISSLQAEDVAVYYCQQTNEDPPTFGGGTKVEIK
notes: also called 3E05 VL1VH3 (var_3)
Turning to B3, the EC50 in test [1] turned out to be 0.27 nM. The “fold higher affinity than parental wild type 3E05 and AC144” value in test [2] was above 100 fold. Moreover, the Kd in test [3] is below 0.01 nM.

B4: 3E05_var11 (antibody, human IgG1, V domains shown)
VH: EVQLVESGGGLVKPGGSLRLSCAASGFTFSSYTMSWVRQAPGKGLEWVAYISSGGGQTYYPDSVKGRFTISRDNAKNSLYLQMNSLRAEDTAVYYCARHDYYDGGLYYAMDYWGQGTLVTVSS
VL: DIVMTQSPDSLAVSLGERATINCKSSQSVDYDGDSSMNWYQQKPGQPPKLLIYAASTLESGVPSRFSGSGSGTDFTLTISSLQAEDVATYYCQQTNEDPPTFGGGTKVEIK
notes: also called 3E05 VL3VH3 (var_11)
Turning to B4, the EC50 in test [1] amounted to 0.81 nM. For the same molecule, binding in test [3] was characterised by a dissociation constant (Kd) of 0.94 nM.

B5: 3E05_var10 (antibody, human IgG1, V domains shown)
VH: QVQLVESGGGLVKPGGSLRLSCAASGFTFSSYTMSWVRQAPGKGLEWVSYISSGGGNTYYADSVKGRFTISRDNAKNSLYLQMNSLRAEDTAVYYCARHDYYDGGLYYAMDYWGQGTLVTVSS
VL: DIVMTQSPDSLAVSLGERATINCKSSQSVDYDGDSSMNWYQQKPGQPPKLLIYAASTLESGVPSRFSGSGSGTDFTLTISSLQAEDVATYYCQQTNEDPPTFGGGTKVEIK
notes: also called 3E05 VL3VH2 (var_10)
The molecule B5 showed an EC50 in test [1] of 0.71 nM. This molecule displayed a dissociation constant Kd in test [3] of 0.73 nM.

B6: 3E05_var4 (antibody, human IgG1, V domains shown)
VH: EVQLVESGGGLVKPGGSLRLSCAASGFTFSSYTMSWVRQAPGKGLEWVAYISSGGGQTYYPDSVKGRFTISRDNAKNSLYLQMNSLRAEDTAVYYCARHDYYEGGLYYAMDYWGQGTLVTVSS
VL: DIVMTQSPDSLAVSLGERATINCKASQSVDYDGDSSMNWYQQKPGQPPKLLISAASTLESGVPSRFSGSGSGTDFTLTISSLQAEDVAVYYCQQTNEDPPTFGGGTKVEIK
notes: also called 3E05 VL1VH4 (var_4)
Turning to B6, the EC50 in test [1] stood at 0.29 nM. Moreover, the “fold higher affinity than parental wild type 3E05 and AC144” value in test [2] was above 100 fold. Also, in test [3], the Kd is below 0.01 nM.

B7: 3E05_var9 (antibody, human IgG1, V domains shown)
VH: EVQLVESGGGLVKPGGSLRLSCAASGFTFSSYTMSWVRQAPGKGLEWVAYISSGGGNTYYPDSVKGRFTISRDNAKNSLYLQMNSLRAEDTAVYYCARHDYYDGGLYYAMDYWGQGTLVTVSS
VL: DIVMTQSPDSLAVSLGERATINCKSSQSVDYDGDSSMNWYQQKPGQPPKLLIYAASTLESGVPSRFSGSGSGTDFTLTISSLQAEDVATYYCQQTNEDPPTFGGGTKVEIK
notes: also called 3E05 VL3VH1 (var_9)
For B7, the EC50 in test [1] is 1.12 nM. Besides, the “fold higher affinity than parental wild type 3E05 and AC144” value in test [2] is above 100 fold. Moreover, in test [3], the Kd was below 0.01 nM.

B8: 3E05_var7 (antibody, human IgG1, V domains shown)
VH: EVQLVESGGGLVKPGGSLRLSCAASGFTFSSYTMSWVRQAPGKGLEWVAYISSGGGQTYYPDSVKGRFTISRDNAKNSLYLQMNSLRAEDTAVYYCARHDYYDGGLYYAMDYWGQGTLVTVSS
VL: DIVMTQSPDSLAVSLGERATINCKSSQSVDYDGDSSMNWYQQKPGQPPKLLISAASTLESGVPSRFSGSGSGTDFTLTISSLQAEDVATYYCQQTNEDPPTFGGGTKVEIK
notes: also called 3E05 VL2VH3 (var_7)
As for B8, the EC50 in test [1] came to 0.33 nM. Also, the “fold higher affinity than parental wild type 3E05 and AC144” value in test [2] is above 100 fold. In test [3], this molecule registered a Kd below 0.01 nM.

B9: 3E05_var16 (antibody, human IgG1, V domains shown)
VH: EVQLVESGGGLVKPGGSLRLSCAASGFTFSSYTMSWVRQAPGKGLEWVAYISSGGGQTYYPDSVKGRFTISRDNAKNSLYLQMNSLRAEDTAVYYCARHDYYEGGLYYAMDYWGQGTLVTVSS
VL: DIVMTQSPDSLAVSLGERATINCKASQSVDYEGDSSMNWYQQKPGQPPKLLISAASTLESGVPSRFSGSGSGTDFTLTISSLQAEDVAVYYCQQTNEDPPTFGGGTKVEIK
In test [1], B9 gave an EC50 of 0.25 nM. Also, the “fold higher affinity than parental wild type 3E05 and AC144” value in test [2] was above 100 fold. The Kd in test [3] is below 0.01 nM.

B10: 3E05_var13 (antibody, human IgG1, V domains shown)
VH: EVQLVESGGGLVKPGGSLRLSCAASGFTFSSYTMSWVRQAPGKGLEWVAYISSGGGNTYYPDSVKGRFTISRDNAKNSLYLQMNSLRAEDTAVYYCARHDYYDGGLYYAMDYWGQGTLVTVSS
VL: DIVMTQSPDSLAVSLGERATINCKASQSVDYEGDSSMNWYQQKPGQPPKLLISAASTLESGVPSRFSGSGSGTDFTLTISSLQAEDVAVYYCQQTNEDPPTFGGGTKVEIK
notes: also called 3E05 VL4VH1 (var_13)
Consider B10, for which, in test [1], a half-maximal response (EC50) required 0.45 nM. Moreover, the “fold higher affinity than parental wild type 3E05 and AC144” value in test [2] was above 100 fold. Further, the Kd in test [3] was below 0.01 nM.

B11: 3E05_var15 (antibody, human IgG1, V domains shown)
VH: EVQLVESGGGLVKPGGSLRLSCAASGFTFSSYTMSWVRQAPGKGLEWVAYISSGGGQTYYPDSVKGRFTISRDNAKNSLYLQMNSLRAEDTAVYYCARHDYYDGGLYYAMDYWGQGTLVTVSS
VL: DIVMTQSPDSLAVSLGERATINCKASQSVDYEGDSSMNWYQQKPGQPPKLLISAASTLESGVPSRFSGSGSGTDFTLTISSLQAEDVAVYYCQQTNEDPPTFGGGTKVEIK
notes: also called 3E05 VL4VH3 (var_15)
As to B11, the EC50 in test [1] came out at 0.25 nM. Also, the “fold higher affinity than parental wild type 3E05 and AC144” value in test [2] was above 100 fold. In test [3], this molecule returned a Kd below 0.01 nM.

B12: 3E05_var8 (antibody, human IgG1, V domains shown)
VH: EVQLVESGGGLVKPGGSLRLSCAASGFTFSSYTMSWVRQAPGKGLEWVAYISSGGGQTYYPDSVKGRFTISRDNAKNSLYLQMNSLRAEDTAVYYCARHDYYEGGLYYAMDYWGQGTLVTVSS
VL: DIVMTQSPDSLAVSLGERATINCKSSQSVDYDGDSSMNWYQQKPGQPPKLLISAASTLESGVPSRFSGSGSGTDFTLTISSLQAEDVATYYCQQTNEDPPTFGGGTKVEIK
Molecule B12 gave an EC50 in test [1] of 0.21 nM. In addition, in test [2], the “fold higher affinity than parental wild type 3E05 and AC144” value is above 100 fold. Further, the Kd in test [3] is below 0.01 nM.

B13: 3E05_var2 (antibody, human IgG1, V domains shown)
VH: QVQLVESGGGLVKPGGSLRLSCAASGFTFSSYTMSWVRQAPGKGLEWVSYISSGGGNTYYADSVKGRFTISRDNAKNSLYLQMNSLRAEDTAVYYCARHDYYDGGLYYAMDYWGQGTLVTVSS
VL: DIVMTQSPDSLAVSLGERATINCKASQSVDYDGDSSMNWYQQKPGQPPKLLISAASTLESGVPSRFSGSGSGTDFTLTISSLQAEDVAVYYCQQTNEDPPTFGGGTKVEIK
notes: also called 3E05 VL1VH2 (var_2)
Molecule B13 had an EC50 in test [1] of 0.32 nM. In test [3], this molecule showed a Kd of 0.3 nM.

B14: anti-BDCA-2 mAb BIIB059 (from patent WO2014093396) (antibody, V domains shown)
VH: DVQLVESGGGLVKPGGSLRLSCAASGFTFSTYTMSWVRQAPGKGLEWVATISPGDSFGYYYPDSVQGRFTISRDNAKNSLYLQMNSLRAEDTAVYYCTRDIYYNYGAWFAYWGQGTLVTVSS
VL: DIQLTQSPSSLSASVGDRVTITCKASQSVDYDGDSYMNWYQQKPGKAPKLLIYAASTLESGVPSRFSGSGSGTDFTLTISSLQPEDFATYYCQQANEDPRTFGQGTKVEIKR
In test [3], B14 registered a Kd of 0.7 nM.
